The target of one experiment is T1, LGR8 (Homo sapiens, UniProt Q8WXD0).
T1 construct: Human LGR8 cDNA containing the complete coding region was PCR amplified; expressed in transfected cells
Briefly: Stimulation of β-galactosidase expression in SK-N-MC/β-gal cells. The settings on record: highest concentration tested 1 μM. The experiment is classed as cell-based. On the procedure: FIGS. 1A-1D show the activation of GPCR135 and GPCR142 by relaxin-3 B-chain, but not of LGR7 or LGR8. In FIG. 1A, SK-N-MC/β-gal cells expressing human GPCR135 were stimulated with relaxin-3, relaxin-3 B-chain, porcine relaxin, or INSL3 at various concentrations to inhibit the forskolin stimulated β-galactosidase expression. Forskolin was added to cells at a final concentration of 5 μM to stimulate the β-galactosidase expression. FIG. 1B depicts results for SK-N-MC/β-gal cells expressing human GPCR142 stimulated as in FIG. 1A. In FIG. 1C, SK-N-MC/β-gal cells expressing human LGR7 were stimulated with relaxin-3, relaxin-3 B-chain, porcine relaxin, and INSL3 at various concentrations to induce the β-galactosidase expression. The intracellular β-galactosidase activities were measured by a colorimetric assay using CRGP as the substrate and reading the absorbance at a wavelength of 570 nm. For FIG. 1D, SK-N-MC/β-gal cells expressing human LGR8 were stimulated as in FIG. 1C.
FIGS. 4A-4D illustrate the evaluation of the agonist activity of relaxin-3 chimeric polypeptides in biofunctional assays. Different chimeric polypeptides at various concentrations were added to SK-N-MC/β-gal cells expressing human GPCR135 (FIG. 4A) or GPCR142 (FIG. 4B) to inhibit forskolin stimulated β-galactosidase expression. Human relaxin-3 was used as the positive control. In parallel, chimeric polypeptides at various concentrations were added to SK-N-MC/β-gal cells expressing human LGR7 (FIG. 4C) and LGR8 (FIG. 4D) to stimulate β-galactosidase expression. Relaxin-3 and INSL3 were used as positive controls for LGR7 and LGR8, respectively. Intracellular β-galactosidase activity was measured by a colorimetric assay using CRGP as the substrate and reading the absorbance at wavelength of 570 nm. Data represent mean±SEM (n=3).
It has been shown that synthetic human relaxin-3 B-chain alone, but not A-chain, is an agonist for both GPCR135 and GPCR142 (Liu et al., 2003, Journal of Biological Chemistry, 278:50754-50764 and Liu et al., 2003, Journal of Biological Chemistry, 278:50765-50770). Those studies were repeated herein in SK-N-MC/β-gal cells, which harbor a β-galactosidase gene under the control of a cAMP responsive element (CRE) (Liu et al., 2001, Molecular Pharmacology, 59:420-426). In such SK-N-MC/β-gal cells, an increase in intracellular cAMP concentration leads to increased β-galactosidase gene expression, the activity of which is measured using Chlorophenol Red-β-D-Galactopyranoside (CPRG) as the substrate.
The inventive chimeric polypeptides were each independently tested for their ability to activate either GPCR135, GPCR142, LGR7, or LGR8, respectively, in separate pools of SK-N-MC/β-gal cells (see supra), each pool stably expressing one of the respective receptors, as indicated (FIG. 4).
Cells were seeded in 96-well tissue culture plate at a density of 30,000 cells/well in MEM plus 10% fetal serum, sodium pyruvate, penicillin, streptomycin, and G418 (400 mg/L). For cells expressing GPCR135 or GPCR142, forskolin was added to cells at a final concentration of 5 μM to stimulate intracellular cAMP accumulation. Different concentrations of each of the inventive polypeptides were then added to the cells to inhibit the forskolin induced cAMP accumulation. For cells expressing LGR7 or LGR8, intracellular cAMP was stimulated with each of the inventive chimeric polypeptides at various concentrations.
For all cells, after adding the chimeric polypeptides, cells were incubated for 6 additional hours in 37° C. incubator. The media was then aspirated and the β-galactosidase activities measured as previously described (Liu et al., 2001, Molecular Pharmacology, 59:420-426). The results were analyzed by Prism 3.0 software. […]

A further experiment addresses T2, GPCR142 (Homo sapiens, UniProt Q8TDU9, L329S).
T2 construct: expressed in transfected cells
Briefly: Radioligand competition binding, [125I]-relaxin-3, membranes of transfected COS-7 cells. The settings on record: for binding / affinity for GPCR142, in words: highest concentration 1 μM. An excerpt: FIGS. 3A-3D illustrate the characterization of various relaxin-3 chimeric polypeptides using radioligand binding assays. Different relaxin-3 chimeric polypeptides were characterized for their receptor binding properties for human recombinant GPCR135 (FIG. 3A), GPCR142 (FIG. 3B), LGR7 (FIG. 3C), or LGR8 (FIG. 3D). For GPCR135, GPCR142, and LGR7, [^125I]-relaxin-3 was used as the radioligand at a final concentration of 100 pM. Different unlabeled peptides were used in the binding assay as the competitors. For LGR8, [^125I]-INSL3 was used as the radioligand at a final concentration of 100 pM. Different unlabeled peptides including relaxin-3 chimeras at various concentrations were added to the binding assay as the competitors. Data represent mean±SEM (n=3).
Radioligand binding assays for GPCR135 and GPCR142 were performed as previously described (Liu et al., 2003, Journal of Biological Chemistry, 278:50754-50764 and Liu et al., 2003, Journal of Biological Chemistry, 278:50765-50770). Membranes from COS-7 cells transiently transfected with either the GPCR135 expression vector or the GPCR142 expression vector, each described supra, were incubated with [^125I]-relaxin-3 at a final concentration 100 pM in 96-well plates. Peptides for competition binding studies were added to the binding mix (final volume: 200 μl) in binding buffer [50 mM Tris-HCl, pH 7.5, 5 mM EDTA, 1% bovine serum albumin, 0.1% protease inhibitor cocktails (Sigma)]. The binding mixtures were incubated at room temperature for 1 hour, filtered through GFC plates (Packard) pre-saturated with 0.3% Polyethylenimine (Sigma), and washed with cold washing buffer (50 mM Tris-HCl, pH 7.5, 5 mM EDTA). Microscint-40 was added to each well and the bound [^125I]-relaxin-3 was counted in a scintillation counter (TopCount/NTX, Packard).

The target of a further experiment is T3, GPCR135 (Homo sapiens, UniProt Q9NSD7).
T3 construct: expressed in transfected cells
T3 sequence (Q9NSD7 1-469): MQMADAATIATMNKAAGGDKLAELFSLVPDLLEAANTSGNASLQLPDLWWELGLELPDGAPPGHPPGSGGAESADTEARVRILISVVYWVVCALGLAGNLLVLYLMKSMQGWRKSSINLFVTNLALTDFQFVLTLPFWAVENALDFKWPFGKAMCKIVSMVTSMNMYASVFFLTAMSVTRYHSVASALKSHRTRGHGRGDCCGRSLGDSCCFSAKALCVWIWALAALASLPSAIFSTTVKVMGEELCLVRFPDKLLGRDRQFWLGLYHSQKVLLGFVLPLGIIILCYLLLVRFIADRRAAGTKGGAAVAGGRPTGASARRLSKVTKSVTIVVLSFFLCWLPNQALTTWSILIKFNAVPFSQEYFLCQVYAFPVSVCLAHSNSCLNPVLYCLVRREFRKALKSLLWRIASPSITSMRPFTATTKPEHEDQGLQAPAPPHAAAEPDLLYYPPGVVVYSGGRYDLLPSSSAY
The experiment is described as above. The settings on record: for binding / affinity for GPCR135, in words: highest concentration 1 μM.

The results in this text go back to US7893197B2, “Relaxin-3 chimeric polypeptides and their preparation and use” (Janssen Pharmaceutica N.V., priority 2005, dated 2011).

T1 sequence (Q8WXD0 whole entry): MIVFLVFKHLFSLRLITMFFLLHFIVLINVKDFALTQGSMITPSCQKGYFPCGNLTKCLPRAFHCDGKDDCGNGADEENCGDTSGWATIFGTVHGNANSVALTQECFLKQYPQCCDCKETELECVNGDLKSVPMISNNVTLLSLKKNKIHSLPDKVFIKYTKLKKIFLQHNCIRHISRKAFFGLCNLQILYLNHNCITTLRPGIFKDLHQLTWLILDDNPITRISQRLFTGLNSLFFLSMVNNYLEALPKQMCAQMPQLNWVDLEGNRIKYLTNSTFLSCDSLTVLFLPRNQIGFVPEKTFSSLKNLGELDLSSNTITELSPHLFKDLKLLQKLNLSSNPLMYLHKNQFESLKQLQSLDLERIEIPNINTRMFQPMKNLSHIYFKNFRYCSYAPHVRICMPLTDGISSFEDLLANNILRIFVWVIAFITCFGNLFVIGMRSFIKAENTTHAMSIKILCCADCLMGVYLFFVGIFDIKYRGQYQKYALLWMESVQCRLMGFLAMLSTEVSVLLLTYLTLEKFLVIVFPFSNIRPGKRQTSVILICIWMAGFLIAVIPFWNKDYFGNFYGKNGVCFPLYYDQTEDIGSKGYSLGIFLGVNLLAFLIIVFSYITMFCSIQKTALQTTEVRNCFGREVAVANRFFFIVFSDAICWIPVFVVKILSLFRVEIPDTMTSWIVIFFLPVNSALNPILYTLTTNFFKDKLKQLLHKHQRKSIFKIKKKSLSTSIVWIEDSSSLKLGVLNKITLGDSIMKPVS
T2 sequence (Q8TDU9 whole entry L329S): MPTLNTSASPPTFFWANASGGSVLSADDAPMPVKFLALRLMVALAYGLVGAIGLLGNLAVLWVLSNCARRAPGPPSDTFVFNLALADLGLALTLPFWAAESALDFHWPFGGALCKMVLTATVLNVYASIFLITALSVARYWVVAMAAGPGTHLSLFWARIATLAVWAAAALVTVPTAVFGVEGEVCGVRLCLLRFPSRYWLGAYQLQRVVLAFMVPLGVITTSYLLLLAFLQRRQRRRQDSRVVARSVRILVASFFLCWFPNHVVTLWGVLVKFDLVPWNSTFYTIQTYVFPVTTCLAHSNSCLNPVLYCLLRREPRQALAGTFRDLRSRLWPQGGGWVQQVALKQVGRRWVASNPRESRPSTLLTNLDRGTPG
Protocol for GPCR135: For GPCR135, GPCR142, and LGR7, [^125I]-relaxin-3 was used as the radioligand at a final concentration of 100 pM. Different unlabeled peptides were used in the binding assay as the competitors. […] Different unlabeled peptides including relaxin-3 chimeras at various concentrations were added to the binding assay as the competitors.

Take “R3/I4: chimeric polypeptide: human relaxin-3 B-chain and INSL4 A-chain; mature polypeptide SEQ ID NO:22 (RAAPYGVRLCGREFIRAVIFTCGGSRWFDPFCCEVICDDGTSVKLC; Human Relaxin-3/Insulin-like 4 chimeric mature polypeptide)”: the “activation of LGR8, in words” value with LGR8 was “no activity”. Also, the “binding / affinity for GPCR142, in words” value with GPCR142 is given as “marginal binding at the highest concentration (1 μM)”. Also, in the experiment with GPCR135, the “binding / affinity for GPCR135, in words” value was “marginal binding at the highest concentration (1 μM)”.

For “R3/I5: chimeric polypeptide: human relaxin-3 B-chain and INSL5 A-chain; mature polypeptide SEQ ID NO:23 (RAAPYGVRLCGREFIRAVIFTCGGSRWQDLQTLCCTDGCSMTDLSALC; Human Relaxin-3/Insulin-like 5 chimeric mature polypeptide)”, the “activation of LGR8, in words” value in the experiment with LGR8 is “inactive”. Moreover, the “binding / affinity for GPCR142, in words” value with GPCR142 is given as “low nanomolar range”. In addition, the “binding / affinity for GPCR135, in words” value with GPCR135 was “subnanomolar”.

For the substance “R3/I6: chimeric polypeptide: human relaxin-3 B-chain and INSL6 A-chain; mature polypeptide SEQ ID NO:24 (RAAPYGVRLCGREFIRAVIFTCGGSRWGYSEKCCLTGCTKEELSIAC; Human Relaxin-3/Insulin-like 6 chimeric mature polypeptide)”, the “activation of LGR8, in words” value in the experiment with LGR8 was “inactive”. Further, the “affinity for GPCR142” value in the experiment with GPCR142 (discussion) lay in the range of 10 to 15 nM. In addition, the “affinity for GPCR135” value in the experiment with GPCR135 (discussion) lay within 10 to 15 nM.
